Data on ten molecules can be found in publication PMC7048787, “MCL1 binding to the reverse BH3 motif of P18INK4C couples cell survival to cell proliferation” (Cell Death & Disease, 2020).

B1: P16: recombinant P16 [Uniprot: P42771] (residues 1–156), negative control (protein)
chain: MEPAAGSSMEPSADWLATAAARGRVEEVRALLEAGALPNAPNSYGRRPIQVMMMGSARVAELLLLHGAEPNCADPATLTRPVHDAAREGFLDTLVVLHRAGARLDVRDAWGRLPVDLAEELGHRDVARYLRAAAGGTRGSNHARIDAAEGPSDIPD
modifications: left off: His6, N-terminal, state not stated
notes: recombinant P16 [Uniprot: P42771]; (residues 1–156), negative control
B2: P18^INK4C: human P18 [Uniprot: P42773] (residues 1–168), His6-tagged recombinant protein (protein)
chain: MAEPWGNELASAAARGDLEQLTSLLQNNVNVNAQNGFGRTALQVMKLGNPEIARRLLLRGANPDLKDRTGFAVIHDAARAGFLDTLQTLLEFQADVNIEDNEGNLPLHLAAKEGHLRVVEFLVKHTASNVGHRNHKGDTACDLARLYGRNEVVSLMQANGAGGATNLQ
modifications: left off: His6, N-terminal, state not stated
notes: human P18 [Uniprot: P42773]; (residues 1–168), His6-tagged recombinant protein
B3: ANK4–5: P18 residues 106–168, retains the rBH3 domain and ankyrin repeat 4 (protein)
chain: PLHLAAKEGHLRVVEFLVKHTASNVGHRNHKGDTACDLARLYGRNEVVSLMQANGAGGATNLQ
modifications: left off: His6, N-terminal, state not stated
B4: chimera: chimeric protein consisting of P16-ANK1–3 and P18-ANK4–5 (P16 residues 1–113 and P18 residues 106–168) (protein)
chain: MEPAAGSSMEPSADWLATAAARGRVEEVRALLEAGALPNAPNSYGRRPIQVMMMGSARVAELLLLHGAEPNCADPATLTRPVHDAAREGFLDTLVVLHRAGARLDVRDAWGRLPLHLAAKEGHLRVVEFLVKHTASNVGHRNHKGDTACDLARLYGRNEVVSLMQANGAGGATNLQ
modifications: left off: His6, N-terminal, state not stated
B5: ANK1–4: P18 residues 1–140, truncation that removes the rBH3-containing fifth ankyrin repeat (protein)
chain: MAEPWGNELASAAARGDLEQLTSLLQNNVNVNAQNGFGRTALQVMKLGNPEIARRLLLRGANPDLKDRTGFAVIHDAARAGFLDTLQTLLEFQADVNIEDNEGNLPLHLAAKEGHLRVVEFLVKHTASNVGHRNHKGDTA
modifications: left off: His6, N-terminal, state not stated
notes: P18 residues 1–140, truncation that removes the rBH3-containing fifth ankyrin repeat
B6: P18 protein (human P18INK4C residues 1-168), recombinant (natural protein, UniProt P42773 1-168, looked up)
chain: MAEPWGNELASAAARGDLEQLTSLLQNNVNVNAQNGFGRTALQVMKLGNPEIARRLLLRGANPDLKDRTGFAVIHDAARAGFLDTLQTLLEFQADVNIEDNEGNLPLHLAAKEGHLRVVEFLVKHTASNVGHRNHKGDTACDLARLYGRNEVVSLMQANGAGGATNLQ
notes: Human P18 (P18INK4C, CDKN2C), residues 1-168, called full-length P18 protein in the results; The purification of this protein is not described; only that of His6-MCL1 is; also called CDKN2C; full-length P18 protein; source: E. coli BL21(DE3), recombinant
B7: P18 21-mer peptide (P18 residues 141-161) (peptide, UniProt P42773 141-161, looked up)
peptide: CDLARLYGRNEVVSLMQANGA
notes: Human P18 (P18INK4C), residues 141-161, holding the rBH3 motif (150-161); Made on rink amide MBHA resin, so the C-terminus is probably an amide (surmised); also called P18x peptides; source: synthetic peptide

No end group written: not given here.

One assay has as its system recombinant MCL1 (rMCL1). The assay is described as follows: In vitro pulldown of recombinant MCL1 by recombinant P18/P16 constructs. Particulars: Western blot of in vitro pulldown, recombinant proteins (IP), rMCL1 (IB), Fig. 2b. It is filed as binding, human. From the text: Human MCL1 [Uniprot: Q07820] (residues 163–326), human P18 [Uniprot: P42773] (residues 1–168), A1–4 (P18 residues 1–140), A4–5 (P18 residues 106–168), P16 [Uniprot: P42771] (residues 1–156), and AC (P16 residues 1–113 and P18 residues 106–168) were sequence-optimized for bacterial expression and cloned into the restriction sites of NdeI and HindIII in a pET28a vector (EMD Millipore) to incorporate a N-terminal hexa-histidine (His6) tag and transformed into BL21(DE3) E. Coli (New England Bio Labs). Cultures were grown under kanamycin selection in Luria broth to a 600 nm optical density of 0.6 and expression was induced by addition of 1 mM isopropyl β-D-1-thiogalactopyranoside (Thermo Fisher). Cultures were harvested 3–4 h after induction by centrifugation at 4700 × g. Resulting bacterial pellets were stored at −80 °C. His6-MCL1 bacterial pellets were re-suspended (10 mL/wet g of pellet) in Buffer A (1 × PBS, pH 6.8) with the addition of 1× lysozyme (0.25 mg/mL) (Thermo Fisher) and 1 protease inhibitor tablet (Pierce #88266), sonicated, and cleared at 14,000 × g. Resulting lysate was purified on NGC FPLC (Bio-Rad Laboratories) using a 1 mL HiTrap HP nickel column (GE Healthcare) equilibrated with Buffer A. Protein was eluted with a 2 mM–1000 mM imidazole gradient. His-MCL1 containing fractions, as identified by denaturing polyacrylamide gel electrophoresis, were further purified by gel filtration in Buffer B (1× PBS, pH 6.8) on a HiPrep 16/60 Sephacryl S-100 column (GE Healthcare). Resulting protein identity was confirmed by matrix-assisted laser desorption/ionization (MALDI) mass spectrometry.
Fig. 2 MCL1 binds specifically to P18 through C-terminal rBH3. a Western blot of endogenous coIP of MCL1 (IP) with P18 (IB), BAX (IB), and P18 (IB) in WAC2. b Western blot of in vitro pulldown of recombinant proteins (IP), ANK1–4, ANK4–5, P18, p16, and chimera, with recombinant MCL1 (rMCL1) (IB). Cartoon of the p16, P18, and chimera proteins are shown below the blot. rBH3-containing helix is highlighted in yellow (Residues: 150–161). c Western blot of in vitro pulldown of recombinant P18 (IP) with rMCL1 (IB) with and without MCL1 inhibitor S63845.
P18 is a member of the INK4 protein family [P16INK4A (P16, CDKN2A), P15INK4B (P15, CDKN2B), P18INK4C (P18, CDKN2C), and P19INK4D (P19, CDKN2D)] that regulate G1/S cell cycle progression with all INK4 proteins retaining homologous CDK4/6 inhibitory function. INK4 family proteins have homologous structures containing either four or five ankyrin (ANK) repeats, a helix-turn-helix structural unit known to mediate protein-protein interactions[15],[17]. […] The rBH3 in P18 resides in its fifth ankyrin repeat (residues 141–168). […] Based on prior stability studies of ankyrin repeats within INK4 family proteins[18],[19], we designed two truncations of P18 (Supplementary Table S1). The first, P18-ANK1–4 (ANK1–4), removes the rBH3-containing fifth ankyrin repeat. The second, P18-ANK4–5 (ANK4–5), retains the rBH3 domain as well as ankyrin repeat 4 to facilitate folding.
As for B1, the “pull-down of recombinant MCL1” value is reported as “showed no interaction”. The same measure, in the same setting: under B2 stands “successfully pulled down MCL1”.

Turning to B3, the “pull-down of recombinant MCL1” value is “successfully pulled down MCL1”. Consider B4, for which the “pull-down of recombinant MCL1” value is recorded as “gained the ability to pulldown recombinant MCL1”. The same measure, in the same setting: in the case of B5 it was “showed no interaction”.

The target in another assay is T1, His6-MCL1 (human MCL1 residues 163-326) (human, UniProt Q07820 163-326).
T1 construct: Named His6-MCL1 in the FPA; called rMCL1 in the pull-downs; also called His-MCL1; recombinant MCL1; source: E. coli BL21(DE3), purified (nickel column, gel filtration); not shown: His6, N-terminal, kept
T1 sequence (Q07820 163-326): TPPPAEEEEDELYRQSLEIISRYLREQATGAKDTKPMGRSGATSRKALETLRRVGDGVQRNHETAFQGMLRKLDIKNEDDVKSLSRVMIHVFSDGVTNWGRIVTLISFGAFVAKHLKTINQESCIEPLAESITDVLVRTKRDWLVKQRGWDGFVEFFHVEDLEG
The assay is described as follows: fluorescence polarisation; competition FPA: 100 nM His6-MCL1 with variable unlabeled P18 protein or peptides for 10 min at RT, then 10 nM FITC-AHX-BAK for 1 h; 1x PBS pH 7.4, 100 uL, 96-well plates.
Conditions: not given
A general note: Fluorescence polarisation rises when a labelled molecule tumbles more slowly, as on binding a larger partner.
Usually IC50 stands for the midpoint of a concentration-inhibition curve. “P18 12-mer peptide (P18 rBH3) (from UniProt P42773 150-161)”: the IC50 was found to be 2500 nM.

Still in this assay, the particulars now being: both partners purified.
The molecule B6 displayed an IC50 of 113 nM. Consider CDLARLYGRNAVVSLMQANGA (not fully specified (C-terminus)) [P18 rBH3 peptide with alanine substitution of E151], for which the IC50 is greater than 30000 nM. The same measure, in the same setting: under CDLARLYGRNEVVSLAQANGA (not fully specified (C-terminus)) [P18 rBH3 peptide with alanine substitution of M156] stands greater than 30000 nM. B7 came in with a concentration for half-maximal inhibition (IC50) of 778 nM.
